# Experimental data published in US20260242419A1, “A CYCLIC PEPTIDE FOR TRAPPING INTERLEUKIN-1 BETA” (Merck Sharp & Dohme LLC, priority 2023, published 2026).
# Starred links: 1 amine or outer side, 2 acyl side, 3 side chain; linkers in the order of their positions; H or OH if unused. Non-standard residues stand in square brackets, D forms with d. No end group written: not given here. TyrEtNAc = (2S)-3-[4-(2-acetamidoethoxy)phenyl]-2-amino-propanoic acid, CC(=O)NCCOc1ccc(C[C@H](N[*:1])C(=O)[*:2])cc1; dProc3CH24Pal = (2R,3S)-3-(4-pyridylmethyl)pyrrolidine-2-carboxylic acid, O=C([C@H]1[C@@H](Cc2ccncc2)CCN1[*:1])[*:2]; ThrOBn = (2S,3R)-2-amino-3-benzyloxy-butanoic acid, C[C@@H](OCc1ccccc1)[C@H](N[*:1])C(=O)[*:2]; dPyrimA = (2R)-2-amino-3-pyrimidin-5-yl-propanoic acid, O=C([C@@H](Cc1cncnc1)N[*:1])[*:2]; daMeSMe = (2R)-2-amino-3-methoxy-2-methyl-propanoic acid, COC[C@@](C)(N[*:1])C(=O)[*:2]; ThrOMe = (2S,3R)-2-amino-3-methoxy-butanoic acid, CO[C@H](C)[C@H](N[*:1])C(=O)[*:2]; dPro(4R-(4-pyridylmethyl)) = O=C(O)[C@H]1C[C@@H](Cc2ccncc2)CN1; Trp(βS-Me,4-F) = C[C@@H](c1c[nH]c2cccc(F)c12)[C@H](N)C(=O)O; Bip(4'-COOH) = N[C@@H](Cc1ccc(-c2ccc(C(=O)O)cc2)cc1)C(=O)O; Trp(4-Cl) = N[C@@H](Cc1c[nH]c2cccc(Cl)c12)C(=O)O; Ala(pyrimidin-5-yl) = N[C@@H](Cc1cncnc1)C(=O)O; Phe(4-CONH2) = NC(=O)c1ccc(C[C@H](N)C(=O)O)cc1; Phe(4-COOH) = N[C@@H](Cc1ccc(C(=O)O)cc1)C(=O)O; Nva(5,5,5-F3) = N[C@@H](CCC(F)(F)F)C(=O)O; Pro(cis-4-F) = O=C(O)[C@@H]1C[C@H](F)CN1; dPhe(4-F) = N[C@H](Cc1ccc(F)cc1)C(=O)O; Dap(CONH2) = NC(=O)NC[C@H](N)C(=O)O; hTyr = N[C@@H](CCc1ccc(O)cc1)C(=O)O; d(αMeD) = C[C@@](N)(CC(=O)O)C(=O)O; h4Pal = N[C@@H](CCc1ccncc1)C(=O)O; hPhe = N[C@@H](CCc1ccccc1)C(=O)O; 4Pal = N[C@@H](Cc1ccncc1)C(=O)O; d3Pal = N[C@H](Cc1cccnc1)C(=O)O; dCha = N[C@H](CC1CCCCC1)C(=O)O; NMeDab = CN[C@@H](CCN)C(=O)O; dCba = N[C@H](CC1CCC1)C(=O)O; Dab = NCC[C@H](N)C(=O)O; Nva = CCC[C@H](N)C(=O)O; Aib = CC(C)(N)C(=O)O
# Target: Recombinant human IL-1β (BioLegend 579404) (human, UniProt P01584 117-269)
# Experiment: cell-based or functional assay
binder,measurement,value
"[Bip(4'-COOH)][4Pal][Phe(4-COOH)]G[Pro(cis-4-F)][Trp(βS-Me,4-F)][Aib]SW[d(αMeD)][ThrOMe]Q[Dab]G[dProc3CH24Pal] (lactam (positions not given here); also: macrolactam, ring places not given here) [SEQ ID NO: 227]",MRC5 IC50,0.014 nM
"cyclo([Bip(4'-COOH)][4Pal][Phe(4-COOH)]G[Pro(cis-4-F)][Trp(βS-Me,4-F)][Aib]SW[d(αMeD)][hTyr]Q[Dab]G[dProc3CH24Pal]) (ring closure inferred; not fully specified (bridges); printed as Bip4CO2H-4Pal-Phe4COOH-G-Proc4F-SbMeW4F-Aib-S-W-daMeD-hY-Q-Dab-G-dProc3CH24Pal, cyclic (macrolactam)) [SEQ ID NO: 219]",MRC5 IC50,0.018 nM
"[Bip(4'-COOH)][4Pal][Phe(4-COOH)]G[Pro(cis-4-F)][Trp(βS-Me,4-F)][Aib]SW[Aib][dPyrimA]Q[Dab]G[dProc3CH24Pal] (lactam (positions not given here); also: macrolactam, ring places not given here) [SEQ ID NO: 233]",MRC5 IC50,0.03 nM
"cyclo([Bip(4'-COOH)][4Pal][Phe(4-COOH)]G[Pro(cis-4-F)][Trp(βS-Me,4-F)][Aib]SW[d(αMeD)][d3Pal]Q[Dab]G[dProc3CH24Pal]) (ring closure inferred) [SEQ ID NO: 240]",MRC5 IC50,0.025 nM
"[Bip(4'-COOH)][4Pal][Phe(4-COOH)]G[Pro(cis-4-F)][Trp(βS-Me,4-F)][Aib]SW[Aib][dD]Q[Dab]G[dProc3CH24Pal] (lactam (positions not given here); also: macrolactam, ring places not given here) [SEQ ID NO: 234]",MRC5 IC50,0.024 nM
"[Bip(4'-COOH)][4Pal][Phe(4-COOH)]G[Pro(cis-4-F)][Trp(βS-Me,4-F)][Aib]S[Trp(4-Cl)][d(αMeD)][Ala(pyrimidin-5-yl)]Q[Dab]G[dProc3CH24Pal] (lactam (positions not given here); also: macrolactam, ring places not given here) [SEQ ID NO: 225]",MRC5 IC50,0.019 nM
"[Bip(4'-COOH)][4Pal][Phe(4-COOH)]G[Pro(cis-4-F)][Trp(βS-Me,4-F)][Aib]SW[d(αMeD)][dCha]Q[Dab]G[dProc3CH24Pal] (lactam (positions not given here); also: macrolactam, ring places not given here) [SEQ ID NO: 237]",MRC5 IC50,0.025 nM
"[Bip(4'-COOH)][4Pal][Phe(4-COOH)]G[Pro(cis-4-F)][Trp(βS-Me,4-F)][Aib]SW[d(αMeD)][h4Pal]Q[Dab]G[dProc3CH24Pal] (lactam (positions not given here); also: macrolactam, ring places not given here) [SEQ ID NO: 222]",MRC5 IC50,0.02 nM
"[Bip(4'-COOH)][4Pal][Phe(4-COOH)]G[Pro(cis-4-F)][Trp(βS-Me,4-F)][Aib]SW[d(αMeD)][h4Pal]Q[Dap(CONH2)]G[dProc3CH24Pal] (lactam (positions not given here); also: macrolactam, ring places not given here) [SEQ ID NO: 223]",MRC5 IC50,0.027 nM
"[Bip(4'-COOH)][4Pal][Phe(4-COOH)]G[Pro(cis-4-F)][Trp(βS-Me,4-F)][Aib]SW[daMeSMe][Ala(pyrimidin-5-yl)]Q[Dab]G[dProc3CH24Pal] (lactam (positions not given here); also: macrolactam, ring places not given here) [SEQ ID NO: 224]",MRC5 IC50,0.03 nM
"[Bip(4'-COOH)][4Pal][Phe(4-COOH)]G[Pro(cis-4-F)][Trp(βS-Me,4-F)][Aib]SW[d(αMeD)][ThrOBn]Q[Dab]G[dProc3CH24Pal] (lactam (positions not given here); also: macrolactam, ring places not given here) [SEQ ID NO: 229]",MRC5 IC50,0.023 nM
"[Bip(4'-COOH)][4Pal][Phe(4-COOH)]G[Pro(cis-4-F)][Trp(βS-Me,4-F)][Aib]SW[Aib][hTyr]Q[Dab]G[dProc3CH24Pal] (lactam (positions not given here); also: macrolactam, ring places not given here) [SEQ ID NO: 220]",MRC5 IC50,0.039 nM
"[Bip(4'-COOH)][4Pal][Phe(4-COOH)]G[Pro(cis-4-F)][Trp(βS-Me,4-F)][Aib]SW[d(αMeD)][hPhe]Q[Dab]G[dProc3CH24Pal] (lactam (positions not given here); also: macrolactam, ring places not given here) [SEQ ID NO: 221]",MRC5 IC50,0.02 nM
"[Bip(4'-COOH)][4Pal][Phe(4-COOH)]G[Pro(cis-4-F)][Trp(βS-Me,4-F)][Aib]SW[d(αMeD)][dL]Q[Dab]G[dProc3CH24Pal] (lactam (positions not given here); also: macrolactam, ring places not given here) [SEQ ID NO: 238]",MRC5 IC50,0.024 nM
"[Bip(4'-COOH)][4Pal][Phe(4-COOH)]G[Pro(cis-4-F)][Trp(βS-Me,4-F)][Aib]SW[d(αMeD)][dPhe(4-F)]Q[Dab]G[dProc3CH24Pal] (lactam (positions not given here); also: macrolactam, ring places not given here) [SEQ ID NO: 236]",MRC5 IC50,0.021 nM
"[Bip(4'-COOH)][4Pal][Phe(4-COOH)]G[Pro(cis-4-F)][Trp(βS-Me,4-F)][Aib]SW[d(αMeD)][ThrOMe]Q[Dap(CONH2)]G[dProc3CH24Pal] (lactam (positions not given here); also: macrolactam, ring places not given here) [SEQ ID NO: 228]",MRC5 IC50,0.021 nM
"[Bip(4'-COOH)][4Pal][Phe(4-COOH)]G[Pro(cis-4-F)][Trp(βS-Me,4-F)][Aib]SW[d(αMeD)][Ala(pyrimidin-5-yl)]Q[NMeDab]G[dProc3CH24Pal] (lactam (positions not given here); also: macrolactam, ring places not given here) [SEQ ID NO: 235]",MRC5 IC50,0.018 nM
"cyclo([TyrEtNAc][4Pal][Phe(4-CONH2)]G[Pro(cis-4-F)][Trp(βS-Me,4-F)][Aib]SW[Aib][Ala(pyrimidin-5-yl)]Q[NMeDab]G[dPro(4R-(4-pyridylmethyl))]) (ring closure inferred; not fully specified (bridges)) [SEQ ID NO: 218]",MRC5 IC50,0.036 nM
"[Bip(4'-COOH)][4Pal][Phe(4-COOH)]G[Pro(cis-4-F)][Trp(βS-Me,4-F)][Aib]SW[d(αMeD)][Nva]Q[Dab]G[dProc3CH24Pal] (lactam (positions not given here); also: macrolactam, ring places not given here) [SEQ ID NO: 231]",MRC5 IC50,0.027 nM
"[Bip(4'-COOH)][4Pal][Phe(4-COOH)]G[Pro(cis-4-F)][Trp(βS-Me,4-F)][Aib]SW[d(αMeD)][Ala(pyrimidin-5-yl)]Q[Dap(CONH2)]G[dProc3CH24Pal] (lactam (positions not given here); also: macrolactam, ring places not given here) [SEQ ID NO: 230]",MRC5 IC50,0.022 nM
"[Bip(4'-COOH)][4Pal][Phe(4-COOH)]G[Pro(cis-4-F)][Trp(βS-Me,4-F)][Aib]SW[d(αMeD)][Nva(5,5,5-F3)]Q[Dab]G[dProc3CH24Pal] (lactam (positions not given here); also: macrolactam, ring places not given here) [SEQ ID NO: 232]",MRC5 IC50,0.022 nM
"[Bip(4'-COOH)][4Pal][Phe(4-COOH)]G[Pro(cis-4-F)][Trp(βS-Me,4-F)][Aib]SW[d(αMeD)][dCba]Q[Dab]G[dProc3CH24Pal] (lactam (positions not given here); also: macrolactam, ring places not given here) [SEQ ID NO: 239]",MRC5 IC50,0.02 nM
"cyclo([Bip(4'-COOH)][4Pal][Phe(4-COOH)]G[Pro(cis-4-F)][Trp(βS-Me,4-F)][Aib]SW[Aib][Ala(pyrimidin-5-yl)]Q[NMeDab]G[dProc3CH24Pal]) (ring closure inferred) [SEQ ID NO: 241]",MRC5 IC50,0.018 nM
"[Bip(4'-COOH)][4Pal][Phe(4-COOH)]G[Pro(cis-4-F)][Trp(βS-Me,4-F)][Aib]S[Trp(4-Cl)][d(αMeD)][Ala(pyrimidin-5-yl)]Q[Dap(CONH2)]G[dProc3CH24Pal] (lactam (positions not given here); also: macrolactam, ring places not given here) [SEQ ID NO: 226]",MRC5 IC50,0.022 nM
